Target: the molecule itself
Assay: crystal structure; Pden_1323 alone at 12 mg/ml; sitting-drop vapor diffusion; 14% glycerol, 18 to 25% PEG 4000, 0.3 M sodium acetate, 0.1 M Tris pH 8.8

B1: Pden_1323 (enzyme, Paracoccus denitrificans PD1222)
chain: MKIDPIRETTDEARALARQLLEAARHASLGTLDPETGVPLVTRIALQTDADGVPLALLAGLAAHARALAVDPRAGLLIAAEAAKGDAMTHARLSILGRAVPAEPDENRRARWLERDPKAKVYLDLPDFRFWRIEPVSGLLNAGFGQAFKLTASDMLKPPAE
notes: Pden_1323, product of the pden_1323 gene of Paracoccus denitrificans PD1222 (opp gene cluster), codon-optimized and cloned NdeI/XhoI into pET-28b(+); HugZ homolog; also called c-type heme oxygenase; CHO; source: Superdex 200 for crystallography; not shown: His-tag, N-terminal, cleaved
binding result: binds

— PMC8131568, “A noncanonical heme oxygenase specific for the degradation of c-type heme” (The Journal of Biological Chemistry, 2021)
